Values quoted from earlier work, collected in publication PMC3773255.
pKd: −log10 of the molar value.

Target: E-cadherin EC1-2 (UniProt P12830)

pKd: 4.01
Substance: E-cadherin EC1-2 (from UniProt P12830)
